# According to article PMC5762688 (2018):
# Columns and labels:
# [1] = molecular target: His6-importin α2/GST-importin β1 heterodimer (mouse), pre-dimerized (mouse, UniProt P52293 1-529; P70168 1-876)
# [2] = molecular target: GST-exportin-1-His6/Ran-GTPγS complex, preformed (UniProt O14980 1-1071; P62826 1-216)
# Chain of GST-exportin-1-His6/Ran-GTPγS complex, preformed (O14980 whole entry, one chain of several): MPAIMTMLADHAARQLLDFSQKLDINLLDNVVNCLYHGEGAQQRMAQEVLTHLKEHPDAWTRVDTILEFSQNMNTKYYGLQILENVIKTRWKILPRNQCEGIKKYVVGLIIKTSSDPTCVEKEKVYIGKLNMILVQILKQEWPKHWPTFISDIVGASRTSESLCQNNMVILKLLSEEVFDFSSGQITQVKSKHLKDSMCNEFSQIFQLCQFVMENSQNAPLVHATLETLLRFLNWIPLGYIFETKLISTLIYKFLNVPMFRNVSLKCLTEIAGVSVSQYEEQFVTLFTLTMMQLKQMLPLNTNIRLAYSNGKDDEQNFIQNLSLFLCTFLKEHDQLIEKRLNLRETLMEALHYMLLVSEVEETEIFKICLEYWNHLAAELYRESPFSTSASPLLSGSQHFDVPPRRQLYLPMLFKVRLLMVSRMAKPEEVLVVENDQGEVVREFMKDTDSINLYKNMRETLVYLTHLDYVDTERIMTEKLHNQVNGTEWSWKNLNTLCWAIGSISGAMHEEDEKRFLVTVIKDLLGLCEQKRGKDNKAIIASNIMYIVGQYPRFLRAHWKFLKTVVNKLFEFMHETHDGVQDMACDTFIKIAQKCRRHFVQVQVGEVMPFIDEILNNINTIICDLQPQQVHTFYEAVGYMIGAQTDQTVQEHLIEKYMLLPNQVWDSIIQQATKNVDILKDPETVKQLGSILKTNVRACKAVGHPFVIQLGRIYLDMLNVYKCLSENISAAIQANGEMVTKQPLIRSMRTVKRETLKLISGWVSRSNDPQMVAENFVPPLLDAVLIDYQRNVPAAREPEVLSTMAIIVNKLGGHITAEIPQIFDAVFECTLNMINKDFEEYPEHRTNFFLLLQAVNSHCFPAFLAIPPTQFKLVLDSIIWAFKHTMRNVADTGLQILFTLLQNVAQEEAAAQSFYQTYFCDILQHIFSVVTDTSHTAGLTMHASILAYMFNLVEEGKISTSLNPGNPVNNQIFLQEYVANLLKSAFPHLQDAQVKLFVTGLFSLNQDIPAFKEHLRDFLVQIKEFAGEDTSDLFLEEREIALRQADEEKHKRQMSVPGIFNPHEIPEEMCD
binder,measurement,setting,value
Biotinylated Hendra virus V protein (natural protein) MDKLDLVNDGLDIIDFIQKNQKEIQKTYGRSSIQQPSTKDRTRAWEDFLQSTSGEHEQAEGGMPKNDGGTEGRNVEDLSSVTSSDGTIGQRVSNTRAWAEDPDDIQLDPMVTDVVYHDHGGECTGHGPSSSPERGWSYHMSGTHDGNVRAVPDTKVLPNAPKTTVPEEVREIDLIGLEDKFASAGLNPAAVPFVPKNQSTPTEEPPVIPEYYYGSGRRGDLSKSPPRGNVNLDSIKIYTSDDEDENQLEYEDEFAKSSSEVVIDTTPEDNDSINQEEVVGDPSDQGLEHPFPLGKFPEKEETPDVRRKDSLMQDSCKRGGVPKRLPMLSEEFECSGSDDPIIQELEREGSHPGGSLRLREPPQSSGNSRNQPDRQLKTGDAASPGGVQRPGTPMPKSRIMPIKKGHRREVSICWDGRRAWVEEWCNPVCSRITPQPRKQECYCGECPTECSQCCHEE,Kd,[1],14.9 nM
same,Kd,[2],9.2 nM
